Publication PMC5716189 (Nucleic Acids Research, 2017)
Square brackets hold non-standard residues; d marks the D form. Ends that are not written are not given here. * marks the point of attachment. FITC = O=C1OC2(c3ccc(O)cc3Oc3cc(O)ccc32)c2ccc(NC(=S)*)cc21; pT = C[C@@H](OP(=O)(O)O)[C@H](N)C(=O)O; pS = N[C@@H](COP(=O)(O)O)C(=O)O

Key:
Conditions in all cases: both partners purified
[1] = target: T1, APLF FHA domain (forkhead-associated domain of aprataxin and PNKP-like factor) (human, UniProt Q8IW19 1-105); experiment: fluorescence polarisation; pH 7.4; apparent dissociation constants; FITC-Gly-Gly-labelled peptide with APLF FHA; 25 mM HEPES, 25 mM MES, 150 mM NaCl, 1 mM EDTA, 2 mM DTT, 0.05% Tween 20; room temperature; single-site fit
T1 sequence: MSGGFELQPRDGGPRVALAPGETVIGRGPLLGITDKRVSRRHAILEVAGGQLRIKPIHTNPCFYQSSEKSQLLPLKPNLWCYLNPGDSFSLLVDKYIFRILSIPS

[2] = target: T1, APLF FHA domain (forkhead-associated …); experiment: NMR titration; 2D 1H,15N-HSQC of 0.1 mM U-[15N] APLF-FHA as a function of phosphopeptide concentration (0–800 μM); 25 mM HEPES, 25 mM MES, 150 mM NaCl, 1 mM EDTA, pH 7.4; 35°C; lineshape simulation (two-site exchange) for Kd and τB of the 18-residue peptide
[3] = target: T1, APLF FHA domain (forkhead-associated …); experiment: crystal structure; sitting drop vapor diffusion, 20°C; APLF FHA 9–10 mg/ml with peptide at a 1:1 peptide:protein ratio
[4] = target: T1, APLF FHA domain (forkhead-associated …); experiment: fluorescence polarisation; pH 5.5; apparent dissociation constants; FITC-Gly-Gly-labelled peptide with APLF FHA; 25 mM HEPES, 25 mM MES, 150 mM NaCl, 1 mM EDTA, 2 mM DTT, 0.05% Tween 20; room temperature; single-site fit
[5] = target: T1, APLF FHA domain (forkhead-associated …); experiment: fluorescence polarisation; pH 6.0; apparent dissociation constants; FITC-Gly-Gly-labelled peptide with APLF FHA; 25 mM HEPES, 25 mM MES, 150 mM NaCl, 1 mM EDTA, 2 mM DTT, 0.05% Tween 20; room temperature; single-site fit
[6] = target: T1, APLF FHA domain (forkhead-associated …); experiment: fluorescence polarisation; pH 6.5; apparent dissociation constants; FITC-Gly-Gly-labelled peptide with APLF FHA; 25 mM HEPES, 25 mM MES, 150 mM NaCl, 1 mM EDTA, 2 mM DTT, 0.05% Tween 20; room temperature; single-site fit
[7] = target: T1, APLF FHA domain (forkhead-associated …); experiment: fluorescence polarisation; pH 7.0; apparent dissociation constants; FITC-Gly-Gly-labelled peptide with APLF FHA; 25 mM HEPES, 25 mM MES, 150 mM NaCl, 1 mM EDTA, 2 mM DTT, 0.05% Tween 20; room temperature; single-site fit
[8] = target: T1, APLF FHA domain (forkhead-associated …); experiment: NMR titration; 2D 1H,15N-HSQC of 0.1 mM U-[15N] APLF-FHA as a function of phosphopeptide concentration (0–800 μM); 25 mM HEPES, 25 mM MES, 150 mM NaCl, 1 mM EDTA, pH 7.4; 35°C; lineshape simulation (two-site exchange) for Kd and τB of the 18-residue peptide; remark: listed apart in the source

B1: FITC-Gly-Gly-XRCC1_(pSpTEE-18) diphosphopeptide (peptide)
peptide: {FITC}-GGDPYAG[pS][pT]DENEDEEEHQE
Kd [1]: 0.3 ± 0.07 µM

B2: XRCC1_(pSpT-9) diphosphopeptide (peptide)
peptide: PYAG[pS][pT]DEN
Kd [2]: 80 µM

B3: XRCC1_(EpT-9) monophosphopeptide (peptide)
peptide: PYAGE[pT]DEN
binding result [3]: binds

B4: FITC-Gly-Gly-XRCC1_(pSpT-24) diphosphopeptide (peptide)
peptide: {FITC}-GGQEENGEDPYAG[pS][pT]DENTDSEEHQE
Kd [1]: 0.16 ± 0.02 µM
Kd [4]: 6.65 ± 2.35 µM
Kd [5]: 3.65 ± 0.91 µM
Kd [6]: 0.32 ± 0.09 µM
Kd [7]: 0.2 ± 0.03 µM

B5: XRCC1_(pSpT-18) diphosphopeptide, unlabelled (NMR studies) (peptide)
peptide: DPYAG[pS][pT]DENTDSEEHQE
Kd [8]: 4 µM
